{"source": "a protein production outcome set (Wang et al. 2014)", "assay": "label from the status in PepcDB records"}
{"sequence": "PDTIIAVDRDHRIIYVNRAMPGHKKTLAVGDHLCDHIMQPYHDRYHHTIERVIVTGKTAVLECELVVSPEETIELESRFAPCFLNGEVTSVVMLSVDITERKGMELELKKTLIDLERFNRVMVGRELRNIELKKRIASLQNDLVLSSGNAQASDDSRQDFATEDEDCAGIHHGDGFEEACDEVQYRKQQRMALLNLIEDANLARNELLETNRKLEESVIRTQEMARAASKANEAKSQFLANMSHEVRTPMNGVIGMSDLLLDTS", "values": [{"measurement": "protein production", "value": "failed"}]}
{"sequence": "PEQIWAKQQKDGSWLMDALIPLNELKYKLGLTTIEGEESEGFQTLNGFLTWWLGRLPHAGELVDYEGWQFEVLNVKHHRIVQVKVSRET", "values": [{"measurement": "protein production", "value": "failed"}]}
{"sequence": "PFKESQARGLLQDNMANGYNGEDFESGLLELSKEIFPTNKYLYQDGQYLDKKTINAYLDPKYTKKEIDKMSEKEKKSKNANENLGLNPSHNGETDEEKIAKNSPAYLSNILEQDFYGNSDSKGKNIKGMTIGLAMNSVYYYKKEKDGETFSKDLSDKEIEKQGKQMASEMLSRLRENSDLKDIPIHFAIYKQSSQDSITPGEFIVGTTVEEGKTKINSWDNINEKAALIPSSTAADYDETLNNNFKQFNDNLQSYFSNFTQAVGKVKFVNKKAKQLTVDLPIDYYGQAETIGITQYVTEQAEKYFDKLDEYEIRIKDGNTPRALISKTKDDKEPQVHIYHN", "values": [{"measurement": "protein production", "value": "not failed"}]}
{"sequence": "PGQVIGLFGGSFDPPHAGHVHVTREALKMFGLDRVWWLVTPGNPLKAHGPAPLDRRMEAARAMMRHPRVDVTDIEAHLGTRVTADTIAALRRIYPRVRFVWLMGADNLAQLHRWKDWRQIIETVPVGVLARPGDRISARMSPAARAYAPYRIDGQARHLLGRAEAPAWCFVNVPMVDVSSTRIRAAGGWSAAQQGR", "values": [{"measurement": "protein production", "value": "failed"}]}
{"sequence": "PINVRVTTMDAELEFAIQPNTTGKQLFDQVVKTVGLREVWFFGLQYVDSKGYSTWLKLNKKVTQQDVKKENPLQFKFRAK", "values": [{"measurement": "protein production", "value": "failed"}]}
{"sequence": "PKQRCRAPACDHFGNAKCNGYCNECFQFKQMYG", "values": [{"measurement": "protein production", "value": "not failed"}]}
{"sequence": "PLADTRFLQRRRALSAQLAAKRIDAMLVTHLTHIRYLSGFTGSNAALIINKDLSARISTDGRYITQIAEQVPDIESLMARNCAPALLSDINGPKRVGFEADYLSVSQCEELRKSAGSDVELIPVTGAIEKLR", "values": [{"measurement": "protein production", "value": "not failed"}]}
{"sequence": "PLTTHNMNSSTSNKVALNAAREGIVLLKNQGDLLPLDKQKVKKIAVVGTLAKYAPPTGFGSANVMASHYVSELSGLQQMAPNAKVEFIDGLSLDPSTSAWNTTDAAGNSVQGMKVEYFSNTNWSGDAAVTRTEQHVDLDWANDKNLPFESNTSTSDPYTTKGSTAGELNGDTSSTSIRYTGKITPTQSGEQVFKVRADGAVRLWVNGKKIIDNGDGKPLPGNSIPPTIPEFAKINLEAGQSYDVKLEYSRRAGYLSTMGGLVGVQLSSASLNAPQDLSGYDAVVVAVGNSNEYEGEGFDHSFDLPEFQNELIQNIAKVNPNTVVTMYGGTGLKMSDWIEQVPVALHAFYPGQNGGQALAEILFGKINPSGKLPISIERNIEDNPAYASFPKFDNQNTLAEMDYKDDLMLGYRGYEKKGIKPLYPFGYGL", "values": [{"measurement": "protein production", "value": "failed"}]}
{"sequence": "PNFEKMKKEVEEILYNLKKEGGKYHCILAFSGGKDSVLALKLLKEKFKLNPLCVMVDNKYMAKEAIENALNVTKHYQVDLMILNRDYTDLFEDAIKRGESPCRRCSRLILREVWRVTKLLGLKYIITGHELP", "values": [{"measurement": "protein production", "value": "not failed"}]}
{"sequence": "PNFSHWGPPRIVEIFREPNVSLGISIVGGQTVIKRLKNGEELKGIFIKQVLEDSPAGKTNALKTGDKILEVSGVDLQNASHSEAVEAIKNAGNPVVFIVQSLSSTPRVIP", "values": [{"measurement": "protein production", "value": "not failed"}]}
{"sequence": "PNILYKIDNQYPYFTKNEKKIAQFILNYPHKVVNMTSQEIANQLETSSTSIIRLSKKVTPGGFNELKTRLSKFLPKEVTQYNVELVDNESTISLKNKLHSRSKAAL", "values": [{"measurement": "protein production", "value": "not failed"}]}
{"sequence": "PRLYKEPSAKSNKFIIHNALSHCCLAGKVNEPQKNRILEEIEKSKANHFLILFRDSSCQFRALYTLSGETEELSRLAGYGPRTVTPAMVEGIYKYNSDRKRFTQIPAKTMSMSVDAFTIQGHLWQSKK", "values": [{"measurement": "protein production", "value": "not failed"}]}
{"sequence": "PRRWPILLIFPGSGFIQMTEREAEPIALAFSAQGYQTMVVEYNLLDRGPVYPNAIDVGLTALKYAKNQGPPHYGDANKTILMGFSAGSHVAALTNAMGNNTEYLKTHGFGDSPLTSRLQVLGYPVIDLAAGFPKSREEAFKISPDEQYWASQNLVTDQTPPTFLWNTCADAVVPTMNSLLYAEALARHHVEYDIHTFTHGKHGLCLSTVETSRYNYPEDIEPRAANWVPLVLSWLSEMLD", "values": [{"measurement": "protein production", "value": "failed"}]}
